# B1: DFFB (parent)
# chain: KLNCDPSRIYKPQTRLKRKQPVRK
# Variants of: B1
# Experiment: protein stability index of a GFP-peptide fusion (GPS, HEK-293T) (PSI 1-6); higher = more stable
# Details: c terminus: a fixed tail appended
# 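Further: lentivirally expressed fusions sorted by FACS into six bins by GFP to DsRed ratio, PSI derived from sequencing read proportions per bin multiplied by bin number.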
row,Variant,protein stability index
1,KLNCDPSRIYKPQTRLKRRQPVRK,3.9
2,KLNCDPSRIYKPQTRLKRQQPVRK,3.34
3,KLNCDPSRIYKPQTRLKRAQPVRK,3.66
4,KLNCDPSRIYKPQTRLKRSQPVRK,2.78
5,KLNCDPSRIYKPQTRLKRGQPVRK,2.63
6,KLNCDPSRIYKPQTRLKRFQPVRK,1.86
7,KLNCDPSRIYKPQTRLKRIQPVRK,3.18
8,KLNCDPSRIYKPQTRLKRTQPVRK,3.52
9,KLNCDPSRIYKPQTRLKRDQPVRK,3.53
10,KLNCDPSRIYKPQTRLKRCQPVRK,2.69
11,KLNCDPSRIYKPQTRLKRHQPVRK,3.49
12,KLNCDPSRIYKPQTRLKRPQPVRK,3.25
13,KLNCDPSRIYKPQTRLKRYQPVRK,2.89
14,KLNCDPSRIYKPQTRLKRMQPVRK,3.31
15,KLNCDPSRIYKPQTRLKRWQPVRK,2.94
16,KLNCDPSRIYKPQTRLKREQPVRK,2.93
17,KLNCDPSRIYKPQTRLKRNQPVRK,3.54
18,KLNCDPSRIYKPQTRLKRLQPVRK,3.14
19,KLNCDPSRIYKPQTRLKRVQPVRK,2.96
20,KLNCDPSRIYKPQTRLYRKQPVRK,3.68
21,KLNCDPSRIYKPQTRLKRKIPVRK,3.69
22,KLNCDPSRIYKPQTRLKRKAPVRK,3.38
23,KLNCDPSRIYKPQTRLKRKPPVRK,2.98
24,KLNCDPSRIYKPQTRLKRKNPVRK,3.66

row,Variant,protein stability index
1,KLNCDPSRIYKPQTRLKRKMPVRK,4.04
2,KLNCDPSRIYKPQTRLKRKTPVRK,4.39
3,KLNCDPSRIYKPQTRLKRKHPVRK,3.12
4,KLNCDPSRIYKPQTRLKRKFPVRK,3.15
5,KLNCDPSRIYKPQTRLKRKKPVRK,3.7
6,KLNCDPSRIYKPQTRLKRKYPVRK,2.91
7,KLNCDPSRIYKPQTRLKRKEPVRK,3.04
8,KLNCDPSRIYKPQTRLKRKVPVRK,3.54
9,KLNCDPSRIYKPQTRLKRKSPVRK,2.75
10,KLNCDPSRIYKPQTRLKRKDPVRK,3.35
11,KLNCDPSRIYKPQTRLKRKGPVRK,4.19
12,KLNCDPSRIYKPQTRLKRKCPVRK,3.6
13,KLNCDPSRIYKPQTRLKRKWPVRK,3.24
14,KLNCDPSRIYKPQTRLKRKRPVRK,3.59
15,KLNCDPSRIYKPQTRLKQKQPVRK,3.4
16,KLNCDPSRIYKPQTRLKKKQPVRK,3.76
17,KLNCDPSRIYKPQTRLKMKQPVRK,3.68
18,KLNCDPSRIYKPQTRLKVKQPVRK,3.89
19,KLNCDPSRIYKPQTRLKNKQPVRK,3.23
20,KLNCDPSRIYKPQTRLKAKQPVRK,2.94
21,KLNCDPSRIYKPQTRLKPKQPVRK,3.83
22,KLNCDPSRIYKPQTRLKGKQPVRK,3.28
23,KLNCDPSRIYKPQTRLKWKQPVRK,3.03
24,KLNCDPSRIYKPQTRLKYKQPVRK,3.05

row,Variant,protein stability index
1,KLNCDPSRIYKPQTRLKFKQPVRK,3.44
2,KLNCDPSRIYKPQTRLKTKQPVRK,3.96
3,KLNCDPSRIYKPQTRLKCKQPVRK,3.43
4,KLNCDPSRIYKPQTRLKSKQPVRK,3.37
5,KLNCDPSRIYKPQTRLKHKQPVRK,3.13
6,KLNCDPSRIYKPQTRLKIKQPVRK,3.32
7,KLNCDPSRIYKPQTRLKLKQPVRK,3.62
8,KLNCDPSRIYKPQTRLKDKQPVRK,3.34
9,KLNCDPSRIYKPQTRLKEKQPVRK,4.21
10,KLNCDPSRIYKPQTRLKRKQPWRK,3.26
11,KLNCDPSRIYKPQTRLKRKQPQRK,3.39
12,KLNCDPSRIYKPQTRLKRKQPCRK,3.41
13,KLNCDPSRIYKPQTRLKRKQPRRK,2.03
14,KLNCDPSRIYKPQTRLKRKQPMRK,3.42
15,KLNCDPSRIYKPQTRLKRKQPPRK,3.87
16,KLNCDPSRIYKPQTRLKRKQPERK,3.31
17,KLNCDPSRIYKPQTRLKRKQPKRK,3.14
18,KLNCDPSRIYKPQTRLKRKQPDRK,3.67
19,KLNCDPSRIYKPQTRLKRKQPTRK,3.64
20,KLNCDPSRIYKPQTRLKRKQPYRK,2.22
21,KLNCDPSRIYKPQTRLKRKQPHRK,3.75
22,KLNCDPSRIYKPQTRLKRKQPARK,3.77
23,KLNCDPSRIYKPQTRLKRKQPFRK,3.48
24,KLNCDPSRIYKPQTRLKRKQPLRK,3.62

row,Variant,protein stability index
1,KLNCDPSRIYKPQTRLKRKQPIRK,3.78
2,KLNCDPSRIYKPQTRLKRKQPGRK,4.39
3,KLNCDPSRIYKPQTRLKRKQPNRK,3.62
4,KLNCDPSRIYKPQTRLKRKQPSRK,4.09
5,KLNCDPSRIYKPQTRLKRKQMVRK,3.76
6,KLNCDPSRIYKPQTRLKRKQEVRK,3.28
7,KLNCDPSRIYKPQTRLKRKQQVRK,3.37
8,KLNCDPSRIYKPQTRLKRKQKVRK,2.75
9,KLNCDPSRIYKPQTRLKRKQAVRK,4.07
10,KLNCDPSRIYKPQTRLKRKQDVRK,2.71
11,KLNCDPSRIYKPQTRLKRKQFVRK,3.37
12,KLNCDPSRIYKPQTRLKRKQCVRK,3.36
13,KLNCDPSRIYKPQTRLKRKQSVRK,3.13
14,KLNCDPSRIYKPQTRLKRKQNVRK,3.67
15,KLNCDPSRIYKPQTRLKRKQYVRK,3.91
16,KLNCDPSRIYKPQTRLKRKQTVRK,3.86
17,KLNCDPSRIYKPQTRLKRKQHVRK,3.41
18,KLNCDPSRIYKPQTRLKRKQGVRK,3.49
19,KLNCDPSRIYKPQTRLKRKQRVRK,3.31
20,KLNCDPSRIYKPQTRLKRKQVVRK,3.31
21,KLNCDPSRIYKPQTRLKRKQWVRK,3.45
22,KLNCDPSRIYKPQTRLKRKQIVRK,3.16
